This note sets out measurements from article PMC2819628 (The Biochemical journal, 2010).

This test has as its target T1, Isu1, mature form (amino acids 35-165) (yeast, UniProt Q03020 35-165).
T1 sequence (looked up): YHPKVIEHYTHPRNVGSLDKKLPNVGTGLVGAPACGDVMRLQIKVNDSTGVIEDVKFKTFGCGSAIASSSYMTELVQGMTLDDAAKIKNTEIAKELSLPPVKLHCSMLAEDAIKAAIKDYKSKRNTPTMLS
The test can be described thus: other fluorescence titration.

B1: Yfh1 (yeast frataxin), wild type, mature form (amino acids 52-174), holo form (natural protein, S. cerevisiae (yeast), UniProt Q07540 52-174, looked up)
chain: VESSTDGQVVPQEVLNLPLEKYHEEADDYLDHLLDSLEELSEAHPDCIPDVELSHGVMTLEIPAFGTYVINKQPPNKQIWLASPLSGPNRFDLLNGEWVSLRNGTKLTDILTEEVEKAISKSQ
Turning to B1, the binding result is reported as “binds”.
